Test results taken from the nanobody polyreactivity screen of Harvey et al. (2022).

Assay: yeast display, Sf9 membrane polyspecificity reagent, FACS + sequencing; frameworks hold sequencing errors
Procedure, shortened: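 Genes from sorted yeast were amplified by colony PCR, read by MiSeq 2 × 250 sequencing and filtered on CDR length. These cells carried a synthetic nanobody library in Saccharomyces cerevisiae BJ5465 and were sorted by FACS into low and high (top ~1%) gates on anti-HA and streptavidin fluorescence. Polyreactivity is labelled according to the gate of origin.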

| Sequence | polyreactivity (PSR sort gate) |
| --- | --- |
| QVQLVESGGGLVQAGGSLRLSCAASGRTFSRYTMGWYRQAPGKERELVARISQRGGSTYYADSVKGRFTISRDYAKNTVYLQMNSLKPEDTAVYYCAKKTYSPYGGYDSWGQGTQVTVSS | high polyreactivity |
| QVQLVESGGGLVQAGGSLRLSCAASGRTFSSYTMGWYRQAPGKERELVAAISWRGGSTYYADSVKGRFTISRDNAKYTVYLQMTSLKPEDTAVYYCNADVYSTYYNYNYWGQGTQVTVSS | high polyreactivity |
| QVQLVESGGGLVQAGGSLRLSCAASGRTFSTNAMGLYRQAPGKERELVAAISASGGSTYYADSVKGRFTISRDNAKTTVYLQMNSLKPEDTAVYYCAAYPGQWRTGYDYWGQGTQVTVSS | high polyreactivity |
| QVQLVESGGGLVQAGGSLRLSCAASGRTFSTNAMGWYRQAPGKEREFVAAITGSGGSTYYADSVKGRFTISRDNAKNTVYLQMNSLKPEDTAVYYCAKRSAWHTYRYGYWGQGTQVTVSS | high polyreactivity |
| QVQLVESGGGLVQAGGSLRLSCAASGRTFSVNAMGWYRQAPGKERELVAAISWDGGSTYYADSVKGRFTISRDNAKNTVYLQMNSLKPVDTAVYYCNKDLYYAYDYWGQGTQVTVSS | low polyreactivity |
| QVQLVESGGGLVQAGGSLRLSCAASGRTFSVNDMGWYRQAPWKEREFVAAISFSGGSTYYADSVKGRFTISRDNAKNTVYLLMNSLKPEDSAVYYSAAEAYPSWFYVITGFGIYDYWGQGTQVTGSS | high polyreactivity |
| QVQLVESGGGLVQAGGSLRLSCAASGRTFSVYAKGWYRQAPGKERELVAGITSGGSTNYADSVKGRFTISRDNAKNTVYLQMNSLKPEDTAVYYCAAENVYAGFGFVSIGDYWGHGTQVTVSS | low polyreactivity |
| QVQLVESGGGLVQAGGSLRLSCAASGRTFSVYTMGWYREAPGQERELVAAISSTGRTNYADSVKGRFTISRDNAKNTVYLQMNSQKPEATAVYDCNAGVRNSYTRHALVTAYYLYYYWRQGTQVTVSS | high polyreactivity |
| QVQLVESGGGLVQAGGSLRLSCAASGRTFSYAMGWYRQAPGKERELVAAISSGARTYYADSVKGRFTISRDNAKNTVYLQMNSLIPEDTAVYYCNARSRYEGLNYWGHGTQVTVSS | high polyreactivity |
| QVQLVESGGGLVQAGGSLRLSCAASGRTFSYAMGWYRQAPGKERELVAGISWSGGRTYYADSVKGRFTISRDNAKNTVYLQMNSLKPEDTAVYYCAAGGRARTYYYWGQGTQVTVSS | high polyreactivity |
| QVQLVESGGGLVQAGGSLRLSCAASGRTFSYNAMGWYRQAPGKERELVAAINWRAGRTYYADSVKGRFTISRDNAKNTVYLQMNSLKPEDTAVYYCNARSGRGQAYGYWGQGTQVTVSS | high polyreactivity |
| QVQLVESGGGLVQAGGSLRLSCAASGRTFSYNAMGWYRQAPGKERELVAAITSSGGGTSYADSVKGRFTISRDNAKNTVYLQMNSLKPEDTAVYYCNRVLPHPDGYGVGARGYWGQGTQVTVSS | high polyreactivity |
| QVQLVESGGGLVQAGGSLRLSCAASGRTFSYNTMGWYRQAPGTERELVARITWGGGSTNYADSVKGRFTISRDNAKNTFYLQMNSLKPEDTAVYYCAAGPSVPYGPQKVDYWGQGTQVTVSS | low polyreactivity |
| QVQLVESGGGLVQAGGSLRLSCAASGRTFSYYTMGWYRQAPGKERELVAAITSSGGSTYYADSVKGRFTISRDNAKNTVYLQMNSLKPEDTAVYYCAVLNYAGKYYYWGQGTQVTVSS | high polyreactivity |
| QVQLVESGGGLVQAGGSLRLSCAASGRTFTAYAMGWYRQAPGKERELVASISSGVTYADSVKGRFTISRDNAKNTVYLQMTSLKPEDTAVYYCAARLWYVQGYVPYVHHRFDYWGQGTQVTVSS | low polyreactivity |
| QVQLVESGGGLVQAGGSLRLSCAASGRTFTCYAMGWYRQAPGKERELVATAITSGGSTNYADSVKGRFTISRDNAKNTVYLQMISLKPEDTAVYYCAAVPTEFGNRLEYDYWGQGTQVTVSS | low polyreactivity |
| QVQLVESGGGLVQAGGSLRLSCAASGRTFTFYTMGWDRQAPGKERELVARITGGGSTYYADSVKGRFTISRDNAKNTVYLQMNSLKPEDTAVYYCAAASGTKRLYRGTRGDYWGQGTQVTVSS | low polyreactivity |
| QVQLVESGGGLVQAGGSLRLSCAASGRTFTGNAMGCYRQAPGKERELVAAISTSGTRTSYADSVKGRFTISRDNAKNTVYLQMNSLKPEDTAVYYCAALRKSLYRTYTYDYWGQGTQVTVSS | high polyreactivity |
| QVQLVESGGGLVQAGGSLRLSCAASGRTFTGNAMGWYRQATGKERELVAAINSGGGRTFYADSVKGRFTISRDNAKNTVYLQMTSLKPEDTAVYYCNAVKYRSYYWGQGTQVTVSS | high polyreactivity |
| QVQLVESGGGLVQAGGSLRLSCAASGRTFTGYAMGWYRKAPGKERELVAAIRRTASTYYADSVKGRFTISRDNAKNTVYLQMNSLKPEDTAVYYCAVRAAHRGTYYYWGQGTQVTVSS | high polyreactivity |
| QVQLVESGGGLVQAGGSLRLSCAASGRTFTGYAMGWYRQAPGKERELVAAISRRGASTYYADSVKGRFTISRDNAKNTVYLQMNSLKPEDTAVYYCAAYLYGLWSVGRDYWGQGTQVTVSS | high polyreactivity |
| QVQLVESGGGLVQAGGSLRLSCAASGRTFTGYAMGWYRQAPGKERELVASISRRGGSTYYADSVKGRFTISRDNAKNTVYLQMNSLKPEDTAVYSCAADSVRHTYSWWYAVDYWGQGTQVTVSS | high polyreactivity |

| Sequence | polyreactivity (PSR sort gate) |
| --- | --- |
| QVQLVESGGGLVQAGGSLRLSCAASGRTFTGYTKGWYRQAPGKEREFVAAISSNGGRTYYADSVKGRFTISRDNAKNTVYLQMNSLKPEDTAVYYCAARYTFWGQGTQVTVSS | high polyreactivity |
| QVQLVESGGGLVQAGGSLRLSCAASGRTFTIYAMGWYRQAPGKERDLVAAITRSGGGTYYADSVKGRFTISRDNAKNTVYLQMNRLKPEDTAVYYCARDKHWFYGVIGPEDYWGQGTQVTVSS | low polyreactivity |
| QVQLVESGGGLVQAGGSLRLSCAASGRTFTIYAMGWYRQAPGKERELVAGITSAGRTYYADSVKGRFTISRDNAKNTVYSQMNSLNPEDTAVDYCAASGSYAIVWGDQYYGYYYWGQGTQVTVSS | high polyreactivity |
| QVQLVESGGGLVQAGGSLRLSCAASGRTFTNNAMGWYRQAPGKERELVAAIRWSGGYTYYADSVKGRFTISRDNAKNTVYLQMNSQKPEDTAVYYCAKGYGYVEAVIVQYDYWGQGSQVTVSS | low polyreactivity |
| QVQLVESGGGLVQAGGSLRLSCAASGRTFTPYAKGWYRQAPGKERELVATISSGTSTNYADSVKGRFTISLDNAKYTVYLQMNSLKPEDTAVYYCAADGYTYKFDYWGQGSQVTVSS | low polyreactivity |
| QVQLVESGGGLVQAGGSLRLSCAASGRTFTPYTRGWYRQAPGKEREFVPAIRTGGNTYYADSVKGRFTISRDNAKNTVYLQMNSLKPEDTAVYYCAARDRIGYRLYYWGQGTQVTVSS | high polyreactivity |
| QVQLVESGGGLVQAGGSLRLSCAASGRTFTQNAMGWYRQAPGKERELVAAISSGGRTYYADSVKGRFTISRDNAKNTVYLQMNSLKPEDTAVYYCNAGGGRRMYWGLGTQVTVSS | high polyreactivity |
| QVQLVESGGGLVQAGGSLRLSCAASGRTFTQYAMGWYRQAPGKERELVARISYSGGTTYYADSVKGRFTISRDNAKNTVYLQMNSLKPEDNAVYYCAKARVVAGYDYWGQGTQVTVSS | high polyreactivity |
| QVQLVESGGGLVQAGGSLRLSCAASGRTFTRNVMGWYRQAPGKERELVARISYSGGSTSYADSVKGRFTISRDNAKNTVYLQMNSLKPEDTAVYYCAKYSGKYVSGRYRYYSWGQGTQVTVSS | high polyreactivity |
| QVQLVESGGGLVQAGGSLRLSCAASGRTFTRYAMGWYRQAPGKERELVAAISWSGGSTYYADSVKGRFTISRDNAKNTVYLQMNSLKPEDTAVYYCNAYYYYPEFNYWGLGTQVTVSS | high polyreactivity |
| QVQLVESGGGLVQAGGSLRLSCAASGRTFTRYAMGWYRQAPGKERELVAAITSSGRTYYADSVKGRFTISRDNAKNTVYLQMNSLKPEDTAVYYCAKYRANALNYANRGAGDYWGQGTQVTVSS | high polyreactivity |
| QVQLVESGGGLVQAGGSLRLSCAASGRTFTRYAMGWYRQAPGKERELVASISSRGTRTYYADSVKGRFTISRDNAKNTVYLQMNSLKPDDTAVYYCNVGFYPYYFLTYQGGDYWGQGTQVTVSS | high polyreactivity |
| QVQLVESGGGLVQAGGSLRLSCAASGRTFTSNAMGWYRPAPGKERELVAAITQSGGSTYYADSVKGRFTISRDNAKNTVYLQMNSLKPEDTAVYYCNAETTGRTEYNYWGQGTQVTVSS | low polyreactivity |
| QVQLVESGGGLVQAGGSLRLSCAASGRTFTSNAMGWYRQAPGKERELVAAITRGGSTYYADSVKGRFTISRDNAKNTVYLQMNSLKPEDTAVYYCNAGIYFRRKRYDYWGQGTQVTVSS | high polyreactivity |
| QVQLVESGGGLVQAGGSLRLSCAASGRTFTVNAMGWYRQAPGKERELVARISYGGARTYYADSVKGRFTISRDNAKNTVYLQMNSLKPEDTAVYYSAAPGPRKYEYDYWGQGTQVTVSS | high polyreactivity |
| QVQLVESGGGLVQAGGSLRLSCAASGRTFTVYAMGWYRQAPGKERELVAAIIYSGGRTYYADSVKGRFTISRDNAKNTVYLQMNSLKPEDTAVYYCAAYVYQSCPRFSRYGGYDYWGQGTQVTVSS | low polyreactivity |
| QVQLVESGGGLVQAGGSLRLSCAASGRTFTVYAMGWYRQAPGKERELVAAIRRRGGSTYYADSVKGRFTISRDNAKNTVYLQMNSLKPEDTAVYYCAADNWYKKQKRPSAYDYWGQGTQVTVSS | high polyreactivity |
| QVQLVESGGGLVQAGGSLRLSCAASGRTFTVYAMGWYRQAPGKERELVAAIRRTGSTYYADSVKGRFTISRDNAKNTVYLQMNSLKPEDTAVYYCNAEGSSVLTGYWGYPPYWDTYDYWGQGTQVTVSS | low polyreactivity |
| QVQLVESGGGLVQAGGSLRLSCAASGRTFTYYAIGWYRQAPGKERELVADINRSGGDTYYADSVKGRFTISRDNAKNTVYLQMNSLKPEDTAVYYSAADDWGAQHRYDYWGQGTQVTVSS | low polyreactivity |
| QVQLVESGGGLVQAGGSLRLSCAASGRTFTYYAMGWSRQAPGKERELVASITSGGSTYADSVKGRFTISRDNAKNTVYLQMNSLKPEDTAVYYCAARAWGYRYKYYWGQGTQVTVSS | high polyreactivity |
| QVQLVESGGGLVQAGGSLRLSCAASGRTFVFNAMGWYRPAPGKERELVAAITKNGGSTYYADSVKGRFTISRDNAKNTVYLQMNSLKPEDTAVYYCAAQWWRLYWEYYYWGQGTQVTVSS | low polyreactivity |
